Test results from US20030177513A1.

Biological target: thrombin
Experiment: cell-based or functional assay

## recombinant human Antithrombin III (ATIII) in the milk of the cloned transgenic goat CFF6-1 (from UniProt P01008 33-464)
  ATIII activity by thrombin inhibition (two-stage colorimetric endpoint assay), milk at day 5: 20.5 U/ml
  ATIII activity by thrombin inhibition (two-stage colorimetric endpoint assay), milk at day 9: 14.6 U/ml
